In PMC3792970, “A Single Nucleotide Polymorphism Associated with Hepatitis C Virus Infections Located in the Distal Region of the IL28B Promoter Influences NF-κB-Mediated Gene Transcription”:

Experiments:
NF-kB p50 [1] = biological target: T1, NF-kB p50 (UniProt P19838 42-367); assay: EMSA; 2 ug p50; diffuse shift; EMSA: 1X BB stated as 50 mM Tris pH 8.0, 250 mM KCl, 2.5 mM EDTA, 0.5% Triton X-100, 62.5% glycerol, 1 mM DTT; 1 ug poly(dI:dC), 10 ul, room temperature 30 min, 4% native PAGE at 4 C; pull-down: 1X BB, poly(dI:dC), RT 2 h; settings: protein: recombinant; chain copies: 2; label: 5'-32P on forward strand (EMSA); biotin (pull-down); blunt
T1 sequence (P19838 42-367): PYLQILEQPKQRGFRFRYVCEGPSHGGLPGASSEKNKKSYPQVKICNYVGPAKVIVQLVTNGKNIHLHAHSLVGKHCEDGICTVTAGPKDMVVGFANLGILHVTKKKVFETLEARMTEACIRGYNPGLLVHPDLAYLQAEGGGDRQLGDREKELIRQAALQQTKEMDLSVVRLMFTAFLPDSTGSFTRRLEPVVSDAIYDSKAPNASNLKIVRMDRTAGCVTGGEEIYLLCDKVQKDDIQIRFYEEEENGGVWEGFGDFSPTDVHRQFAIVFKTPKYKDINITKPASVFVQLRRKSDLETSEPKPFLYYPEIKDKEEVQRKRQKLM

NF-kB p50 [2] = biological target: T1, NF-kB p50; assay: EMSA; 2 ug p50; distinct bands; EMSA: 1X BB stated as 50 mM Tris pH 8.0, 250 mM KCl, 2.5 mM EDTA, 0.5% Triton X-100, 62.5% glycerol, 1 mM DTT; 1 ug poly(dI:dC), 10 ul, room temperature 30 min, 4% native PAGE at 4 C; pull-down: 1X BB, poly(dI:dC), RT 2 h; settings: protein: recombinant; chain copies: 2; label: 5'-32P on forward strand (EMSA); biotin (pull-down); blunt

B1: G-T (NF813G-T) (dsDNA)
DNA 1: CCCCTGCCCTCAGTGGGCAGCCTCTGCATTCCCTCAGCTCCCTTTCTCTCTGTGA
DNA 2: TCACAGAGAGAAAGGGAGCTGAGGGAATGCAGAGGCTGCCCACTGAGGGCAGGGG
NF-kB p50 [1]
  binding result: binds

B2: C-C (NFC-C849) (dsDNA)
DNA 1: CCCCTGCCCTCAGTGGGCAGCCTCTCCATCCCCTCAGCTCCCTTTCTCTCTGTGA
DNA 2: TCACAGAGAGAAAGGGAGCTGAGGGGATGGAGAGGCTGCCCACTGAGGGCAGGGG
NF-kB p50 [2]
  binding result: binds
